Test [1] concerns the target T1, CD38 on the surface of Daudi cells (human, UniProt P28907 1-300).
T1 construct: whole, on cells
Put plainly: flow cytometry, Daudi cells.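 Also: purified antibodies incubated with Daudi cells for 1 h at 4 °C, bound antibody detected by fluorescent secondary antibody and read by flow cytometry as MFI.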 On the technique in general: In flow cytometry, cells or beads pass a laser one at a time.
Description: Harvested cells were centrifuged at 2000 rpm for 5 min and resuspended with 10-15 ml ice-cold culture medium. Cells were counted and then 3×10⁶ cells were resuspended per mL of blocking buffer (PBS plus 2% FBS). 100 μl of the cell suspension was dispensed into each well of a 96-well plate and incubated at room temperature for 10-20 min. […] While incubating, purified antibodies were diluted to the desired dilution with blocking buffer. After a 10-20 minutes incubation, cells were centrifuged for 5 min at 2000 rmp in a refrigerated centrifuge. Blocking buffer was aspirated, and cells were resuspended in 100 μl/well diluted antibodies and incubated for 1 hour at 4° C. The cells were then washed 3 times with PBS plus 2% FBS. After the final wash, the cells were resuspended in 100 μl 1:500 diluted secondary antibody (Invitrogen, Cat #: A10631) and incubated for 1 hour at 4° C. in the dark. The cells were then washed 3 times with 200 μl PBS by centrifuging at 2000 rpm for 5 min. After the last wash, the cells were resuspended in 300 μl cold PBS and analyzed on a FACSVerse™ (BD Biosciences) flow cytometer.

Test [2] concerns the target T2, recombinant human CD38 (human, UniProt P28907 43-300, limits assumed). The experiment in a line: SPR (Biacore 8K), antibody captured, antigen injected.
Description: (§1) The binding kinetics of the anti-CD38 and anti-ICAM1 antibodies were evaluated on a Biacore 8K instrument (GE Healthcare). Biacore Series S CM5 sensor chips were immobilized with monoclonal mouse anti-human IgG (Fc) antibody (human antibody capture kit from GE Healthcare). Antibodies were captured on each flow cell. Serial 3-fold dilutions of each antigen were injected at a flow rate of 30 μl/min. Each sample was analyzed with 1 min association and 10 min dissociation at room temperature (25° C.). After each injection, the chip was regenerated using 3M MgCl₂. A 1:1 Langmuir model of simultaneous fitting of kₒₙ and koff was used for kinetics analysis.
The target of test [3] is T3, cynomolgus CD38 ECD (cynomolgus, UniProt Q5VAN0 44-301, biotinylated on the AviTag during preparation).
T3 construct: also called Cyno-CD38; Avi-Cyno CD38 ECD
The test is described as above.
Description: as §1

Test [4] deals with T2, recombinant human CD38. The experiment in a line: ELISA: plate coated with 1 ug/ml recombinant human CD38 ECD, serially diluted antibody, OD450. On the technique in general: In an ELISA, binding on a coated surface is turned into a signal by an enzyme label.
Description: (§2) The plate was coated overnight at 4° C. with 1 μg/ml recombinant CD38 or ICAM1. After washing 3 times, the plate was blocked with 300 μl 1% BSA in PBST at 37° C. for 1 hour. Serially diluted antibodies were added and incubated at 37° C. for 1 hour. The plate was then washed 4 times with PBST and incubated with 1:5000 diluted 2nd antibody (Sigma, Cat #A0293) at 37° C. for 1 hour.
For test [5], the target named is T3, cynomolgus CD38 ECD. The experiment in a line: ELISA: plate coated with 1 ug/ml recombinant cynomolgus CD38 ECD, serially diluted antibody, OD450.
Description: as §2
The target of test [6] is T4, ICAM1 on the surface of DU145 cells (human, UniProt P05362 28-532).
T4 construct: whole, on cells
T4 sequence (P05362 28-532): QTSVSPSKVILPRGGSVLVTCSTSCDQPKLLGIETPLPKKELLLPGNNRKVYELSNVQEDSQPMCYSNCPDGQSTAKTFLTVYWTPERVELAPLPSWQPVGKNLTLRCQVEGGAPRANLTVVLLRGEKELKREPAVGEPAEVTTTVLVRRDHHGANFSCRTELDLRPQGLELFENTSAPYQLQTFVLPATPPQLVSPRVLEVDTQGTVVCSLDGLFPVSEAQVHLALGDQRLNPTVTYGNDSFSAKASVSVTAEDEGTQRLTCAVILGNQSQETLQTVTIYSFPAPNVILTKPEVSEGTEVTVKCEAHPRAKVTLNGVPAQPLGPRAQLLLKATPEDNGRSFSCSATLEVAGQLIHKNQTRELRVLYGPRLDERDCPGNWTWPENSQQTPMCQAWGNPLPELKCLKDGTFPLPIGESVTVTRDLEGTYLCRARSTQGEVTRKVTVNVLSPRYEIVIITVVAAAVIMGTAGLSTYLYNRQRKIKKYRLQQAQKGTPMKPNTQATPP
The experiment in a line: flow cytometry, DU145 cells.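 Also: purified antibodies in dilution series bound to cells for 1 h at 4 °C, detected with a fluorescent secondary antibody (1 h, 4 °C, dark), read by flow cytometry.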

Test [7] deals with T5, recombinant human ICAM1 (human, UniProt P05362 28-480, limits assumed). The experiment in a line: SPR (Biacore 8K), antibody captured, antigen injected. (In general: In SPR one partner is held on a chip, and binding of the other changes the refractive index at the surface.)
T5 sequence (P05362 28-480 limits assumed): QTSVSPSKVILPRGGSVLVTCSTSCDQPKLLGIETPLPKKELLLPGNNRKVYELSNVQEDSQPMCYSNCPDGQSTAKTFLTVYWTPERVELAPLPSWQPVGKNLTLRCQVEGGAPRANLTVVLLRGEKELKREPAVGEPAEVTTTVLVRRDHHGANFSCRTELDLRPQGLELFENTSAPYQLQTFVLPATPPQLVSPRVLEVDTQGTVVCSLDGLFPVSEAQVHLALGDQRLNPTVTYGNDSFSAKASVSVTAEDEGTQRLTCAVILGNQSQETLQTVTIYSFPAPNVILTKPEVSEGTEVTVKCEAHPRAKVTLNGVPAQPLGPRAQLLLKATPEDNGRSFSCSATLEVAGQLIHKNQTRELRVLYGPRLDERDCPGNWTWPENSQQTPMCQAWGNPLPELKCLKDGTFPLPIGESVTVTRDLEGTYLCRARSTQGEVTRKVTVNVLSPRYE
Test [8] deals with T6, Rhesus-ICAM1 (rhesus, UniProt Q5NKV6 28-480, limits assumed).
T6 sequence (looked up): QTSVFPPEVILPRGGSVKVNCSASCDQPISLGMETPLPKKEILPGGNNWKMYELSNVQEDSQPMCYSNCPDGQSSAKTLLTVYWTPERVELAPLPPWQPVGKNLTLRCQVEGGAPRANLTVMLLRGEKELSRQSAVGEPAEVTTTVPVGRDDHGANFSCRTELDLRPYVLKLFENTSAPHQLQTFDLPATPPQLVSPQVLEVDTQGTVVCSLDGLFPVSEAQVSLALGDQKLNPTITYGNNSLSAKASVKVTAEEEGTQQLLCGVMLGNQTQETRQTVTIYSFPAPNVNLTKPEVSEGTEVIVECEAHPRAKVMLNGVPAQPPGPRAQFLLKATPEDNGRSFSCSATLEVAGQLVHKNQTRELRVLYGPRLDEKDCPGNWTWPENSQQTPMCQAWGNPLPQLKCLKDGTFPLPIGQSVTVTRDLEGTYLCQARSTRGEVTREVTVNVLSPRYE
The description is as above.

Test [9] has as its target T5, recombinant human ICAM1. Put plainly: ELISA: plate coated with 1 ug/ml recombinant human ICAM1 ECD, serially diluted antibody, OD450.
Description: as §2
Test [10] addresses T6, Rhesus-ICAM1. The experiment in a line: ELISA: plate coated with 1 ug/ml recombinant rhesus ICAM1 ECD, serially diluted antibody, OD450.
Description: as §2

B1: 23D1 (antibody, human IgG1, kappa, V domains shown)
VH: QELVESGGGLFQPGGSLALTCKASGFSLSNIYVMCWVRQAPGKGLEWIACIGTGSGDTDYATWAKGRFTISKTSSTTVTLQMTSLTAADTATYFCARDPGAGTWNLWGPGTLVTVSS
VL: DIVMTQTPSSVEAAVGGTVTIKCQASQTIGSRLAWYQQKPGQPPKLLIYSASTLASGVSSRFKGSGSGTQFTLTISDLDSADAATYYCQSYYYTSTSYPNAFGGGTEVVVKR
notes: Rabbit-human chimeric anti-CD38: rabbit VH and VL on human IgG1 and kappa constant regions
As for B1, in test [1], the EC50 stood at 704 pM and the “Max Binding MFI” value is 1000 MFI. Also, in the test with recombinant human CD38 [2], the Kd is 670 pM, the koff turned out to be 0.000125 s⁻¹ and the kon amounted to 187000 M⁻¹ s⁻¹. Also, in the test with cynomolgus CD38 ECD [3], the Kd turned out to be 550 pM, the koff came out at 0.000294 s⁻¹ and the kon came to 536000 M⁻¹ s⁻¹. In addition, in the test with recombinant human CD38 [4], the “EC50 (read off the curve)” value is around 60 pM. For the same molecule, the “EC50 (read off the curve)” value with cynomolgus CD38 ECD [5] was around 60 pM.

B2: 21H9 (antibody, human IgG1, kappa, V domains shown)
VH: QSLEESGGDLVKPGASLTLTCTASGFSATTYYYYMCWVRQAPGKGLEWIACTYTGDGATYYATWAKGRFTISKTSSTTVTLQMTSLTAADTATYFCARSADNSIYYGYFNLWGPGTLVTVSS
VL: AFELTQTPFSVSEPVGGTVTINCQASENIYSSLAWYQQKPGQPPKLLIYRASTLASGVPSRFSGSGSGTEFTLTISGVQSDDAATYYCQTYYGSTSTGFTFGGGTEVVVKR
notes: as for B1
As for B2, in test [1], the response was half-maximal at 1200 pM (EC50) and the “Max Binding MFI” value was determined as 1930 MFI. Also, in the test with recombinant human CD38 [2], the Kd was determined as 4 pM, the koff stood at 5.99e-07 s⁻¹ and the kon turned out to be 166000 M⁻¹ s⁻¹. In the test with cynomolgus CD38 ECD [3], this molecule gave a Kd of 760 pM, a koff of 0.00014 s⁻¹ and a kon of 184000 M⁻¹ s⁻¹. Besides, in the test with recombinant human CD38 [4], the “EC50 (read off the curve)” value is around 60 pM. For the same molecule, in the test with cynomolgus CD38 ECD [5], the concentration for a half-maximal effect (EC50 (read off the curve)) was around 60 pM.

B3: 22H6 (antibody, human IgG1, kappa, V domains shown)
VH: QSVEESGGRLVTPGTPLTLTCTVSGFSLSNNAISWVRQAPGKGLQWIGSIYGSGNTYYATWAKGRFTVSKTSTTVDLKINSPTTEDTATYFCAREGAGSSWGFNLWGPGTLVTVSS
VL: AQVLTQTASSVSAAVGGTVTISCQSSESVYKNNYLSWYQQKPGQPLKCLIYSASTLASGVPSRFKGSGSGTQFTLTISDLESDDAATYYCAGGYSGNINGFGGGTEVVVKR
notes: as for B1
Take B3: in test [1], a half-maximal effect (EC50) was put at 1320 pM and the “Max Binding MFI” value amounted to 782 MFI. Moreover, in the test with recombinant human CD38 [2], the Kd was 65400 pM, the koff is 0.021 s⁻¹ and the kon was determined as 321000 M⁻¹ s⁻¹. Further, in the test with cynomolgus CD38 ECD [3], the Kd turned out to be 62400 pM, the koff is 0.0352 s⁻¹ and the kon came to 564000 M⁻¹ s⁻¹. Besides, the “EC50 (read off the curve)” value with cynomolgus CD38 ECD [5] is around 60 pM.

B4: 20B5 (antibody, human IgG1, kappa, V domains shown)
VH: QSLEESGGDLVKPGASLTLTCTASGFSFSSRYWICWVRQAPGKGLEWIACIVAGTTNTYYASWAKGRFTISKTSSTTVTLQMTSLTAADTATYFCAGDPRTGSNVGYFNLWGPGTLVTVSS
VL: AQVLTQTPSPVSAAVGGTVTINCQASQSVYNNNYLAWFQQKPGQPPKLLIYSASTLASGVPSRFKGSGSGTQFTLTISEVQSDDAATYYCQAYYSGGIYAFGGGTEVVVKR
notes: as for B1
Regarding B4, in [1], the response was half-maximal at 373 pM (EC50) and the “Max Binding MFI” value was determined as 816 MFI. In the test with recombinant human CD38 [2], the Kd was 98600 pM, the koff worked out at 0.0341 s⁻¹ and the kon worked out at 346000 M⁻¹ s⁻¹. Further, in the test with cynomolgus CD38 ECD [3], the dissociation constant Kd is 54800 pM, the koff is 0.0322 s⁻¹ and the kon worked out at 588000 M⁻¹ s⁻¹. Also, the “EC50 (read off the curve)” value in the test with cynomolgus CD38 ECD [5] was around 60 pM.

B5: 26D4 (antibody, human IgG1, kappa, V domains shown)
VH: QEQLEESGGDLVKPEGSLTLTCTASGFSFSNDAICWVRQAPGKGLEWIACIYAGSGNTYYASWAKGRFSISKTSSTTVTLQMTSLTVADTATYFCASADTIDYFNLWGPGTLVTVSS
VL: AQVLTQTPSPVSAAVGGTVTINCQASQSVYNNNYLAWYQQKPGQPPKLLIYRASNLASGVPSRFSASGSGTQFTLTISEVQSDDAATYYCQAYYRDPTTAFGGGTEVVVKR
notes: as for B1
Take B5: in test [1], a half-maximal effect (EC50) was put at 4060 pM and the “Max Binding MFI” value was 577 MFI. Also, in the test with recombinant human CD38 [2], the Kd was found to be 510000 pM, the koff is 0.102 s⁻¹ and the kon came out at 200000 M⁻¹ s⁻¹. In the test with cynomolgus CD38 ECD [3], this molecule came in with a Kd of 43800 pM, a koff of 0.0313 s⁻¹ and a kon of 715000 M⁻¹ s⁻¹. In the test with cynomolgus CD38 ECD [5], the “EC50 (read off the curve)” value was around 60 pM.

B6: 1E2 (antibody, human IgG1, kappa, V domains shown)
VH: QSVEESGGRLVTPGTPLTLTCTVSGIDLNSYAMGWVRQAPGKGLKYIGIMTSGGNIYYANWAKGRFTISKTSTTVDLRITSPTTEDTATYFCAREREFYGGGTSGSRLDLWGQGTLVTVSS
VL: AYDMTQTPASVEAAVGGTVTIKCQASQSIYNFLNWYQQKPGQPPKLLIYYASTLAFGVPSRFKGSGSGTEYTLTISGVESADAATYYCQQGWNSGILDNSFGGGTEVVVKR
notes: as for B1
For B6, in [1], it took 497 pM to reach a half-maximal effect (EC50) and the “Max Binding MFI” value worked out at 2130 MFI. Further, in the test with recombinant human CD38 [2], the Kd was 1620 pM, the koff was found to be 0.000388 s⁻¹ and the kon came out at 240000 M⁻¹ s⁻¹. Besides, in the test with cynomolgus CD38 ECD [3], binding was put at a Kd of 68100 pM, the koff is 0.0124 s⁻¹ and the kon was 182000 M⁻¹ s⁻¹. Besides, in the test with recombinant human CD38 [4], the “EC50 (read off the curve)” value was around 60 pM. The “EC50 (read off the curve)” value in the test with cynomolgus CD38 ECD [5] is around 60 pM.

B7: 21G2 (antibody, human IgG1, kappa, V domains shown)
VH: QSVEESGGRLVTPGTPLTLTCTVSGFSLSNYGVSWVRQAPGKGLEWIGYILTSGGTYYANWAQGRFTISKTSTTVDLKITSPTTEDTATYFCGRPKDSDSSAFVSLWGPGTLVTVSS
VL: DVVMTQTPASVSEPVGGTVTINCQASESIYSNLAWYQQKPGQPPKLLIYKASTLASGVSSRFKGSGSGTEFTLTISDLESADAATYYCQANHMIVIYGNGFGGGTEVVVKR
notes: as for B1
For B7, in [1], the 50% effective concentration (EC50) was 1130 pM and the “Max Binding MFI” value was 2150 MFI. Moreover, in the test with recombinant human CD38 [2], the Kd worked out at 190 pM, the koff came out at 3.1e-05 s⁻¹ and the kon turned out to be 167000 M⁻¹ s⁻¹. In the test with cynomolgus CD38 ECD [3], binding was put at a Kd of 1710 pM, the koff stood at 0.000432 s⁻¹ and the kon amounted to 253000 M⁻¹ s⁻¹. In the test with recombinant human CD38 [4], the “EC50 (read off the curve)” value is around 60 pM. The “EC50 (read off the curve)” value with cynomolgus CD38 ECD [5] was around 60 pM.

B8: 2E3 (antibody, human IgG1, kappa, V domains shown)
VH: QSVEESGGGLVKPGGTLTLTCTVSGFSLSSYAMGWVRQAPGKGLEYIGIIGSSGSTYYASWAKGRFTISKTSTTVDLKITSPTTEDTATYFCVRDPYDSFGDGYRLWGPGTLVTVSS
VL: AYDMTQTPASVEVAVGGTVTIKCQASENIYRYLLWYQQKLGQRPSLLIYDASKLASGVPSRFKGSGSGTEFTLTISGVQSDDAATYYCQQAYSSSNVDNAFGGGTEVVVKR
notes: Rabbit-human chimeric anti-ICAM1: rabbit VH and VL on human IgG1 and kappa constant regions
B8: in test [6], it took 1590 pM to reach a half-maximal effect (EC50) and the “Max Binding MFI” value came to 3980 MFI. In the test with recombinant human ICAM1 [7], the Kd came out at 650 pM, the koff was found to be 0.000149 s⁻¹ and the kon was 227000 M⁻¹ s⁻¹. For the same molecule, in the test with Rhesus-ICAM1 [8], binding was put at a Kd of 1170 pM, the koff came out at 0.000387 s⁻¹ and the kon was found to be 330000 M⁻¹ s⁻¹. Moreover, in the test with recombinant human ICAM1 [9], the “EC50 (read off the curve)” value is around 40 pM. Moreover, the “EC50 (read off the curve)” value with Rhesus-ICAM1 [10] is around 40 pM.

B9: 23B3 (antibody, human IgG1, kappa, V domains shown)
VH: QSVEESGGRLVTPGTPLTLTCTVSGFSLSNYDMTWVRQAPGRGLEWIGVISSGDNTNYARWAKGRFTISKTSSTTVDLKITSPTTEDTATYFCARILYNKGRYYFTFWGPGTLVTVSS
VL: AQVLTQTPSSVSAAVGGTVTINCQSSQSIANSDELAWYQQKPGQPPKLLIYDASTLAPGVPSRFSGSGSGTQFTLTISGVQSDDAATYYCQGTVYDSGWYAAFGGGTEVVVKR
notes: as for B1
On to B9, for which, in test [1], it took 325 pM to reach a half-maximal effect (EC50) and the “Max Binding MFI” value came out at 1330 MFI. In the test with recombinant human CD38 [2], the Kd was found to be 0.029 pM, the koff is 2.77e-08 s⁻¹ and the kon amounted to 970000 M⁻¹ s⁻¹. In the test with cynomolgus CD38 ECD [3], this molecule gave a Kd of 40 pM, a koff of 9.46e-05 s⁻¹ and a kon of 2.43e+06 M⁻¹ s⁻¹. In the test with recombinant human CD38 [4], the concentration for a half-maximal effect (EC50 (read off the curve)) is around 60 pM. Moreover, the “EC50 (read off the curve)” value with cynomolgus CD38 ECD [5] was around 60 pM.

What is called EC50 is the midpoint of the concentration-response curve. A higher EC50 goes with weaker potency. As a reminder, the Kd is the free concentration of one partner at which half of the binding sites on the other are occupied at equilibrium, for simple one-to-one binding. As usually defined, the koff is the rate constant with which the complex falls apart. In general, kon refers to the second-order rate constant of association. The term EC50 (read off the curve) denotes the concentration at which the effect is half-maximal.
